Read-outs that look alike come from different tables or passages of the source.
Assays:
[1] = target: LEF1/TCF-transcriptional factors; assay: cell-based or functional assay
[2] = target: LEF1/TCF-transcriptional factors; assay: cell-based or functional assay; remark: listed apart in the source
[3] = target: T1, TCF4 (UniProt Q9NQB0 1-619, limits assumed); assay: co-immunoprecipitation with anti-TCF4 beads
T1 construct: Endogenous protein of HCT116 cells; also called endogenous TCF4
Description: Co-immunoprecipitation-The affinity-protein G beads were prepared by mixing 20 μl of protein G plus-Agarose beads (Santa Cruz Biotechnology) with 1 μg of corresponding antibody. A total of 2×10⁶ of cells were lysed with 1× cells lysis buffer (Promega) containing 1× protease inhibitor reagent (Roche), incubated on ice for 30 minutes, sonicated briefly, and centrifuged at 12,000 g for 5 minutes at 4° C. The supernatants were further cleaned with 20 μl of untreated protein G plus-Agarose beads and 2 μg of pre-immune serum for 2 hours at 4° C. The supernatants were then mixed with 20 μl of prelabeled protein G plus-Agarose beads at 4° C. overnight. The beads were washed four times with PBS plus 0.2% NP40.
Xom binds to LEF1/TCF factors in vivo and in vitro-Binding of LEF1/TCFs to the promoter of TOPflash is required for the activation of the reporter construct; thus, the finding that expression of Xom activates TOPflash but not FOPflash raised the possibility that Xom activates the TOPflash reporter through interaction with LEF1/TCFs. This hypothesis was tested by determining whether Xom physically interacts with LEF1/TCFs. Co-immunoprecipitation experiments was carried out in HCT116 cells transiently transfected with mye-Xom. […] The in vivo association between Xom and TCF4 appears to be strong and could not be dissociated with 300 mM NaCl and 0.1% NP40. […]

T1 sequence (Q9NQB0 whole entry): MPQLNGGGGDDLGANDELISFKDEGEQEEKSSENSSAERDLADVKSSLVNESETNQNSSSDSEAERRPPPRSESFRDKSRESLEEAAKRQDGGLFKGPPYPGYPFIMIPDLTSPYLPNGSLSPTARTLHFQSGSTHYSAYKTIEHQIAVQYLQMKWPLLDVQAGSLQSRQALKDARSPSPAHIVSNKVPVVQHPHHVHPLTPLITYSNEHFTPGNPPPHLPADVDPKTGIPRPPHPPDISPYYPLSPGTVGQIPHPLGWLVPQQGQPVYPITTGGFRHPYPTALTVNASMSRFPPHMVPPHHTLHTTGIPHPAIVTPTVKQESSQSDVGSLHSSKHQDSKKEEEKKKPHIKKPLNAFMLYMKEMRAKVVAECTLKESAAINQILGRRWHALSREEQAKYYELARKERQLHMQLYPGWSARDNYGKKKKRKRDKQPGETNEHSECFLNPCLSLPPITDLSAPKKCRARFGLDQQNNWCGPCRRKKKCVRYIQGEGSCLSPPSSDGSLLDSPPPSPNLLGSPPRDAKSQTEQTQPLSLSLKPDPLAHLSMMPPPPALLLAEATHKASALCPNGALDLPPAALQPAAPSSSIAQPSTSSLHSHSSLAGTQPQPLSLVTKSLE

For Xom, the TOPflash reporter in 293T cells [1] was 10 fold and the TOPflash reporter transcription in Xenopus embryos [1] was 7 fold.

B1: XomCD85 (protein)
chain: MTKAFSSVEWLAQSSRRSHREQPSKVDQRYSPYPSPSLPSWNSDVSPSSWNSQLSPDPDSAQVSPCPASAQVSPYSSDSEISLYSHEEEASFYGMDLNTSSSPGDNGLLHSEMVSVPDNIPRASSDEDAAKSAYSTSTDSGYESETSCSSSTAPEGDAISLSPNDTSDEEGKMGRRLRTAFTSDQISTLEKTFQKHRYLGASERQKLAAKLQLSEVQIKTWFQNRRMKYKREIQDGRPDSY
B1 was tested, and the TOPflash reporter in 293T cells [2] was 10 fold.

B2: XomID110 (other)
chain: MTKAFSSVEWLAQSSRRSHREQPSKVDQRYSPYPSPSLPSWNSDVSPSSWNSQLSPDPDSAQVSPCPASAQVSPYSSDSEISLYSHEEEASFYGMDLNTSSSPGDNGLLHSEMVSVPDNIPRASSDEDAAYHPAQFFGVYGYAQQPTPVFQHAVQHPYPGYNPLMETLPGTMPYTMHPPAMDSMTPFNSQPFQMLYLPQQHLGQPLTYQEERPFVR
notes: Internal deletion mutant of Xom lacking aa 131-240, which includes the homeodomain; also called XomID110 (fusion of aa 1-130 and aa 241-326)
B2: no binding [3].

Reference: patent US20080032927A1 (published 2008)
